Molecular target: human mesothelin (MSLN) on the cell surface (human) (UniProt Q13421)
Test: FACS on MiaPaCa-MSLN #2 cells, upper histogram and table

Chain of human mesothelin (MSLN) on the cell surface (human) (Q13421 other isoform, or with tags, fused parts or gaps limits assumed): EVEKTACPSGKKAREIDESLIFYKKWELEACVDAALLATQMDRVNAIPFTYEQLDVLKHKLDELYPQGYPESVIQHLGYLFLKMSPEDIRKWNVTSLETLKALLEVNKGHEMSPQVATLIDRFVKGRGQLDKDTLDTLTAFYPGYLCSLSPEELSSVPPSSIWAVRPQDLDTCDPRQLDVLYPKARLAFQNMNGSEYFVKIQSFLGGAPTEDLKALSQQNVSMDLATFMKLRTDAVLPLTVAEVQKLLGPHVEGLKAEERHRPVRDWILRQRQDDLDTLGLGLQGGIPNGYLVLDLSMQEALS

Mean, FL2-H: 2710
B1: BAY94-9343 (antibody, INN chains, looked up, V domains shown)
VH: QVELVQSGAEVKKPGESLKISCKGSGYSFTSYWIGWVRQAPGKGLEWMGIIDPGDSRTRYSPSFQGQVTISADKSISTAYLQWSSLKASDTAMYYCARGQLYGGTYMDGWGQGTLVTVSS
VL: DIALTQPASVSGSPGQSITISCTGTSSDIGGYNSVSWYQQHPGKAPKLMIYGVNNRPSGVSNRFSGSKSGNTASLTISGLQAEDEADYYCSSYDIESATPVFGGGTKLTVL
modifications: ravtansine (DM4) payload
